The text below walks through data of the supplement of paper PMC9170038.

This data set relates to MS2 coat protein. The experiment in a line: apparent KD of MS2 coat protein; designed switch direction (-1 OFF switch, 1 ON switch): -1; higher = weaker reporter binding. In outline: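 The buffer was Tris-HCl pH 7.5 with KCl, MgCl2, BSA, DTT, tRNA and Tween-20. In it, SNAP-549-labelled MS2 coat protein was titrated in doubling steps from 0.7 or 1.5 nM to 3 µM over chip-bound RNA switches transcribed by stalled E. coli RNA polymerase on Illumina chips. Apparent KD is the per-design median over clusters of curve fits to normalised fluorescence.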

The mark [1] stands for this setting: input ligand: microRNA oligo, concentration not stated.
[2] abbreviates: Eterna round: R95, input ligand: FMN 200 uM.
[3] abbreviates: Eterna round: R95, input ligand: microRNA oligo, concentration not stated.
Where [4] appears, read: Eterna round: R95, input ligand: none.

In the case of “UGUUGUUACGCAGGAUAUUGUCAACAGGCAAUAGGAUAUCCGAAAGGAGAAGGAUCGCCAACAGGCGAGAAGGGCGGGUUAACA [pwkr exNG2 2xF7 2xFMN.1] (Eterna round: R96, puzzle: Exclusion NG 2)”, the “apparent KD of MS2 coat protein” value runs as follows: (input ligand: FMN 200 uM) 133 nM; under setting [1], 1580 nM; (input ligand: none) 2630 nM.
In the same order, the values of “UGUUGUUACGUAGGAUAUGGCCAACAGGCCCUAGGAUAUGCGAAAGCAGAAGGAGCGCCAACAGGCGAGAAGGACGGGUUAACA [pwkr exNG2 2xF7 2xFMN.15] (Eterna round: R96, puzzle: Exclusion NG 2)” are 50.2 nM, 78.2 nM and 60.5 nM.
Take “UGUUGUUCAGGAUAUGAUGUAUAAUACAUGAGGAUCACCCAUGUAGAUCCUGAAUUAGCGUCAGAAGGGAAUGUUG [salish99_ex5_r4_104] (Eterna round: R97, puzzle: Exclusion 5)”: the “apparent KD of MS2 coat protein” value amounted to 18 nM (input ligand: FMN 200 uM) and 21.1 nM (input ligand: none).
For “UGUUGUUCAGGAUAUGAUGUAUUAUACAUGAGGAUCACCCAUGUGGGUCCUGAUUUGGCGUCAGAAGGGAAUGUUG [salish99_ex5_r4_110] (Eterna round: R97, puzzle: Exclusion 5)”, in that order: 205 nM and 150 nM.
As to “UGUUGUUGAUAGGAUAUACUUGUAGGAGUAGGAGUAGAAGGAUCUACAUGAGGAUCACCCAUGUAGGAGUGAGA [JR_E6_Sub003] (puzzle: Exclusion 6)”, the “apparent KD of MS2 coat protein” value runs as follows: under setting [2], 18.2 nM; under setting [3], 16.6 nM; under setting [4], 15.7 nM.
For the sequence “UGUUGUUGAUAGGAUAUACUUGUAGGAGUUGUAGUAGAAGGAUCUACAUGAGGAUCACCCAUGUAGGAGUGAGU [JR_E6_Sub004] (puzzle: Exclusion 6)”, the “apparent KD of MS2 coat protein” value under setting [3] is 15.6 nM.
In the case of “UUAAACGGAGGAUAUACAUUUUUUUUAUUAUCCUCAUUAAAACAUGAGGAUCACCCAUGUAGAAGGCCGAAAUU [Mat - Exclusion 2 - Mod of Hog - D86] (puzzle: Exclusion 2)”, the “apparent KD of MS2 coat protein” value under setting [3] was determined as 91.5 nM.
For “UUAAAUCAUGUAGGAUAUGCGUGGCGAAGCUAUGCAGAAGGACAUGAGGAUCACCCAUGUUCUAGCGUCUGCGAACAGAUGCAA [Mat - Exclusion NG 1 - Mod of JL - D1] (Eterna round: R96, puzzle: Exclusion NG 1)”, the “apparent KD of MS2 coat protein” value worked out at 120 nM (input ligand: FMN 200 uM), 12.2 nM under setting [1] and 16.9 nM (input ligand: none).
For “UUAAAUCAUGUAGGAUAUGCGUGGCGAAGCUAUGCAGAAGGACAUGAGGAUCACCCAUGUUCUUGCGUCUGCGUACAGAUGCAA [JL ENG1 1.09] (Eterna round: R96, puzzle: Exclusion NG 1)”, in that order: 118 nM, 26 nM and 37.2 nM.
In the case of “UUAACAUGCUGGUGAUCAUACAUGAGGAUCACCCAUGUAACAAGCUUUUUGCUCGUCUUAAUUUAAUUGAUUACUAG [Stov1/8-A1] (Eterna round: R97, puzzle: Sensor, turn-off variant 1)”, the “apparent KD of MS2 coat protein” value runs as follows: (input ligand: FMN 200 uM) 120 nM; (input ligand: none) 134 nM.
For “UUAAUGACUGUGAGGAUAUCGGAUAGAUAGAUAUUUGAGAAGGUACAUGAGGAUCACCCAUGUGUGAUUAGAGA [Brourd's EX4 #66] (Eterna round: R97, puzzle: Brourd's mod of Exclusion 4)”, in that order: 246 nM and 253 nM.
Turning to “UUAAUGAUUGUGAGGAUAUUUCAUAGAUAGAUAUUAGAGAAGGUACAUGAGGAUCACCCAUGUGUGAUUAGAGA [Brourd's EX4 #71] (Eterna round: R97, puzzle: Brourd's mod of Exclusion 4)”, the “apparent KD of MS2 coat protein” value amounted to 89.7 nM (input ligand: FMN 200 uM) and 93.5 nM (input ligand: none).
For “UUAAUGUCAGGAUAUGCUUAAUAUAUUAUAUUAUAAUAUAUACAUGAGGAUCACCCAUGUAGAAGGGACAUUAU [LRO-Excl2-03-Fireball XL5] (Eterna round: R97, puzzle: Exclusion 2)”, in that order: 26.8 nM and 38.2 nM.
As to “UUAAUGUGAGGAUAUCAGGUGUGCUAGCGUACUGGUACAUCUGAGAAGGCACAUGAGGAUCACCCAUGUUCCUG [JL-ex4-3.28 Brourd mod] (puzzle: Exclusion 4)”, under setting [3], the “apparent KD of MS2 coat protein” value was 20.6 nM.
As for “UUAAUUCGGAUUCUUGAAAUACAUGAGGAUCACCCAUGUUCACAGGAUAUUGAUUAUGUUAGUAACAAGAAGGGUGUAACAUAU [JR_ExcNG3_Sub036] (Eterna round: R96, puzzle: Exclusion NG 3)”, the “apparent KD of MS2 coat protein” value (input ligand: FMN 200 uM) was 87.1 nM, the “apparent KD of MS2 coat protein” value under setting [1] turned out to be 31 nM and the “apparent KD of MS2 coat protein” value (input ligand: none) worked out at 28.7 nM.
For “UUACGACAUGAGGAUCACCCAUGUUAGGAUAUGUGGCGAGAGCGCUAGCCUCGGGCCAACAGAAGGAAUAGGGC [Eternabot (L2) Solution 35] (Eterna round: R97, puzzle: Exclusion 1)”, the “apparent KD of MS2 coat protein” value (input ligand: FMN 200 uM) stood at 53.4 nM and the “apparent KD of MS2 coat protein” value (input ligand: none) came to 58.5 nM.
As to “UUACUAUGUCGCCUAAUAGCUUUUUGCUCGUCUUAUAUUACAUGAGGAUCACCCAUGUAGAUCAUGUGGCGUGACCU [JL ViennaUCT Maridi mod 4] (puzzle: Sensor v3, turn-off variant 2)”, the “apparent KD of MS2 coat protein” value under setting [2] turned out to be 246 nM, the “apparent KD of MS2 coat protein” value under setting [3] came out at 39.1 nM and the “apparent KD of MS2 coat protein” value under setting [4] is 217 nM.
In the same order, the values of “UUACUAUGUCGCUUAAUAGCUUUUUGCUCGUCUUAUAUUACAUGAGGAUCACCCAUGUAGAUCAUGUGGCGUGACCU [JL ViennaUCT Maridi mod 6] (puzzle: Sensor v3, turn-off variant 2)” are 247 nM, 36 nM and 237 nM.
On to “UUAGAUUAUGAAGGAUAUGGAUCUUAUUAUUAACCAGAAGGUCAACUCAACAUGAGGAUCACCCAUGUAUAAAGGGUAUUAGUU (Eterna round: R96, puzzle: Exclusion NG 1)”, for which, under setting [1], the “apparent KD of MS2 coat protein” value turned out to be 109 nM.
On to “UUAUACGUUGAGGAUAUGCGACUGUUUUAAGUUGUAGAAGGCGAUACAUGAGGAUCACCCAUGUUUAUGGGCAU [LRO-Ex6-12] (puzzle: Exclusion 6)”, for which, under setting [3], the “apparent KD of MS2 coat protein” value turned out to be 169 nM.
On to “UUAUAUAGGUAGGAUAUCGAUUUUAAUUAAUUUCGAGAAGGGUCAACAUGAGGAUCACCCAUGUCAGCAUGUAU [LRO-Excl6-05-Rocketman] (Eterna round: R97, puzzle: Exclusion 6)”, for which the “apparent KD of MS2 coat protein” value reads like this: (input ligand: FMN 200 uM) 45.6 nM; (input ligand: none) 51.4 nM.
“UUAUAUAGUGUGAGGAUAUGCUGGUCCUUGGAUCAGCAGAAGGCACAUGAGGAUCACCCAUGUAAUAUAUUAUU [JL bmx4 3.07] (puzzle: Brourd's mod of Exclusion 4)”: the “apparent KD of MS2 coat protein” value under setting [3] is 58.2 nM.
The same measure, in the same setting: as for “UUAUUAAGUGUGAGGAUAUGCUGGUCCUUGGAUCAGCAGAAGGCACAUGAGGAUCACCCAUGUACUUUAUUUUA [JL bmx4 3.04] (puzzle: Brourd's mod of Exclusion 4)”, the figure is 15.5 nM.
For “UUAUUAAUUAAUAUUAUAAGAUCACAUGAGGAUCACCCAUGUCAGGAUAUCAGCUCGUUUAGAGCUGAGAAGGGACAAAUAAUA [ExNG3/15-B2] (Eterna round: R96, puzzle: Exclusion NG 3)”, the “apparent KD of MS2 coat protein” value is, setting by setting: (input ligand: FMN 200 uM) 118 nM; under setting [1], 187 nM; (input ligand: none) 189 nM.
“UUAUUAUAUGUAGGAUAUGCAUAUUAUUAUUAUGCAGAAGGACAUGAGGAUCACCCAUGUAUGUUGUUAUUAUAUAUUAUAUAU [Title] (Eterna round: R96, puzzle: Exclusion NG 1)”: the “apparent KD of MS2 coat protein” value under setting [1] stood at 20.6 nM.
As to “UUAUUAUAUGUAGGAUAUGCAUAUUGUUAUUAUGCAGAAGGACAUGAGGAUCACCCAUGUAUAUUAUUAUUAUAUAUUAUAUAU [Title] (Eterna round: R96, puzzle: Exclusion NG 1)”, under setting [1], the “apparent KD of MS2 coat protein” value was 23.3 nM.
Consider “UUCAGUCAUCCUUAUUGUUACAUGAGGAUCACCCAUGUUUGUUUAAUUAAGUUUUGUAAGUUUGUUGUUCGUUUUAU [JR_STOV1_v2_Sub074] (Eterna round: R97, puzzle: Sensor, turn-off variant 1)”, for which the “apparent KD of MS2 coat protein” value is, setting by setting: (input ligand: FMN 200 uM) 154 nM; (input ligand: none) 173 nM.
On to “UUCAUGUGAGGAUAUAGUACUCUUUCUAUUAUUAUUGAGUAUUAGAAGGCACAUGAGGAUCACCCAUGUAGUAC [Ex4 - 3 - 41] (puzzle: Exclusion 4)”, for which the “apparent KD of MS2 coat protein” value under setting [3] worked out at 28.1 nM.
Consider “UUCCCACAUGAGGAUCACCCAUGUGAGGAUAUGGGCGGCGCCGCAAAAGCGGCGCCGCCCAGAAGGCGCAUGAU [Malcxlusion 8 - Jieux - Exclusion 1] (Eterna round: R97, puzzle: Exclusion 1)”, for which the “apparent KD of MS2 coat protein” value is, setting by setting: (input ligand: FMN 200 uM) 21.6 nM; (input ligand: none) 18.4 nM.
Regarding “UUCCUCUCUUCUCCGUCUCACAUGAGGAUCACCCAUGUAACAUAGGAUAUGCUUGGUAUUUAAAUGCAGAAGGAUGUUAGUAUU [JR_ExcNG3_Sub081] (Eterna round: R96, puzzle: Exclusion NG 3)”, the “apparent KD of MS2 coat protein” value is, setting by setting: (input ligand: FMN 200 uM) 76.6 nM; under setting [1], 21.1 nM; (input ligand: none) 29.5 nM.
For “UUCCUCUCUUCUUUGUCUCACAUGAGGAUCACCCAUGUAACAUAGGAUAUGCUUGGUAUUUAUAUGCAGAAGGAUGUUAGUAUU [JR_ExcNG3_Sub083] (Eterna round: R96, puzzle: Exclusion NG 3)”, in that order: 60.8 nM, 19 nM and 25.7 nM.
